US20160272683A1 (Novo Nordisk, published 2016)
Numbered stars: 1 amine (or outer) side, 2 acyl side, 3 side chain; on linkers, the order of the positions; unused ones are H or OH. * marks the point of attachment. C20 diacid = O=C(O)CCCCCCCCCCCCCCCCCCC(=O)*; γGlu = O=C(O)[C@H](CCC(=O)[*:2])N[*:1]; C12 diacid = O=C(O)CCCCCCCCCCC(=O)*

T1: human amylin 3(a) receptor (human calcitonin receptor co-expressed with RAMP-3) (human, UniProt P30988 25-474; O60896 24-148, limits assumed)
T1 sequence (looked up) 1: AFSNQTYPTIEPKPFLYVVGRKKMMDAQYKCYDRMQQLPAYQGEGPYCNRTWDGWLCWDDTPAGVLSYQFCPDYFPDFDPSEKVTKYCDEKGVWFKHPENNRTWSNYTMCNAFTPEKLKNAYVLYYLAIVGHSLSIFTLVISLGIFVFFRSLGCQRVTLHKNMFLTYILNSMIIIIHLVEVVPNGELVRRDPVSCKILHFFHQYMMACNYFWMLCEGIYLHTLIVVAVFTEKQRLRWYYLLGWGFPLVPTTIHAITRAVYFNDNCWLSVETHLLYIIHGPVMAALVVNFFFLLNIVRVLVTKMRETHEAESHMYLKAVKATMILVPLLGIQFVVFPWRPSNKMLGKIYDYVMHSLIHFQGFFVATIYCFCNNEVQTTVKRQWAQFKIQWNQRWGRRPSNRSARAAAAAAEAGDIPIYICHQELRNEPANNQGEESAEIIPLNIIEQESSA
T1 sequence (looked up) 2: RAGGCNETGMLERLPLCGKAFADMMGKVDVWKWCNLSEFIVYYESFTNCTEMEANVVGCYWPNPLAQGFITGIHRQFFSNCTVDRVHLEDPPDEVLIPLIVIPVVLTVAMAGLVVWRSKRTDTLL

T2: human calcitonin receptor (human, UniProt P30988 25-474)
T2 sequence (looked up): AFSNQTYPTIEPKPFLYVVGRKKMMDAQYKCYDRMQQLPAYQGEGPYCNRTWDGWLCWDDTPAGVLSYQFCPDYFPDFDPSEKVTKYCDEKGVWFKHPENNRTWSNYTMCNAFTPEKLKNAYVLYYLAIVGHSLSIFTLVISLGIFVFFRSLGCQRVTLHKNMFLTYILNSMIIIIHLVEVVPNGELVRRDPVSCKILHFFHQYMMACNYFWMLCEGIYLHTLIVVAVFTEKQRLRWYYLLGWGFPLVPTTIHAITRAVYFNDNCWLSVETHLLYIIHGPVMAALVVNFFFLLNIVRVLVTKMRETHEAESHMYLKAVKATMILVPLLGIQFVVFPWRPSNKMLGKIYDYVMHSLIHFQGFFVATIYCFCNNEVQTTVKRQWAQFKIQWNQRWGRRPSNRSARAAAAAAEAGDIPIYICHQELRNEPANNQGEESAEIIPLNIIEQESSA


Tests used:
[1] = target: T1, human amylin 3(a) receptor (human …); assay: cell-based or functional assay
[2] = target: T2, human calcitonin receptor; assay: cell-based or functional assay

| Binder | hAmylin-R funct. EC50 (pM) [1] [pM] | hCTR funct. EC50 (pM) [2] [pM] |
| --- | --- | --- |
| {C12 diacid}-EASELSTAALGRLSAELHELATLPRTETGPESP-NH2 [[N-terminal(C12 diacid)]mimylin] | 23 | 8 |
| {C20 diacid-γGlu}-ASELSTAALGRLSAELHELATLPRTETGSGSF-NH2 (SMILES CC(C)C[C@H](NC(=O)[C@H](C)NC(=O)[C@H](C)NC(=O)[C@@H](NC(=O)[C@H](CO)NC(=O)[C@H](CC(C)C)NC(=O)[C@H](CCC(=O)O)NC(=O)[C@H](CO)NC(=O)[C@H](C)NC(=O)CC[C@H](NC(=O)CCCCCCCCCCCCCCCCCCC(=O)O)C(=O)O)[C@@H](C)O)C(=O)NCC(=O)N[C@@H](CCCNC(=N)N)C(=O)N[C@@H](CC(C)C)C(=O)N[C@@H](CO)C(=O)N[C@@H](C)C(=O)N[C@@H](CCC(=O)O)C(=O)N[C@@H](CC(C)C)C(=O)N[C@@H](Cc1c[nH]cn1)C(=O)N[C@@H](CCC(=O)O)C(=O)N[C@@H](CC(C)C)C(=O)N[C@@H](C)C(=O)N[C@H](C(=O)N[C@@H](CC(C)C)C(=O)N1CCC[C@H]1C(=O)N[C@@H](CCCNC(=N)N)C(=O)N[C@H](C(=O)N[C@@H](CCC(=O)O)C(=O)N[C@H](C(=O)NCC(=O)N[C@@H](CO)C(=O)NCC(=O)N[C@@H](CO)C(=O)N[C@@H](Cc1ccccc1)C(N)=O)[C@@H](C)O)[C@@H](C)O)[C@@H](C)O) [[N-terminal(C20 diacid-gGlu), des1, 30S, 31G, 33F]mimylin] | 50 | 40 |
| {C20 diacid-γGlu}-ASELSTAALGRLSAELHELATLPRTETGSGSG-NH2 (SMILES CC(C)C[C@H](NC(=O)[C@H](C)NC(=O)[C@H](C)NC(=O)[C@@H](NC(=O)[C@H](CO)NC(=O)[C@H](CC(C)C)NC(=O)[C@H](CCC(=O)O)NC(=O)[C@H](CO)NC(=O)[C@H](C)NC(=O)CC[C@H](NC(=O)CCCCCCCCCCCCCCCCCCC(=O)O)C(=O)O)[C@@H](C)O)C(=O)NCC(=O)N[C@@H](CCCNC(=N)N)C(=O)N[C@@H](CC(C)C)C(=O)N[C@@H](CO)C(=O)N[C@@H](C)C(=O)N[C@@H](CCC(=O)O)C(=O)N[C@@H](CC(C)C)C(=O)N[C@@H](Cc1c[nH]cn1)C(=O)N[C@@H](CCC(=O)O)C(=O)N[C@@H](CC(C)C)C(=O)N[C@@H](C)C(=O)N[C@H](C(=O)N[C@@H](CC(C)C)C(=O)N1CCC[C@H]1C(=O)N[C@@H](CCCNC(=N)N)C(=O)N[C@H](C(=O)N[C@@H](CCC(=O)O)C(=O)N[C@H](C(=O)NCC(=O)N[C@@H](CO)C(=O)NCC(=O)N[C@@H](CO)C(=O)NCC(N)=O)[C@@H](C)O)[C@@H](C)O)[C@@H](C)O) [[N-terminal(C20 diacid-gGlu), des1, 30S, 31G, 33G]mimylin] | 142 | 66 |

Now from value to binder:

| hAmylin-R funct. EC50 (pM) [1] [pM] | hCTR funct. EC50 (pM) [2] [pM] | Binder |
| --- | --- | --- |
| 53 | 48 | {C20 diacid-γGlu}-ASELSTAALGRLSAELHELATLPRTETGSGSH-NH2 (SMILES CC(C)C[C@H](NC(=O)[C@H](C)NC(=O)[C@H](C)NC(=O)[C@@H](NC(=O)[C@H](CO)NC(=O)[C@H](CC(C)C)NC(=O)[C@H](CCC(=O)O)NC(=O)[C@H](CO)NC(=O)[C@H](C)NC(=O)CC[C@H](NC(=O)CCCCCCCCCCCCCCCCCCC(=O)O)C(=O)O)[C@@H](C)O)C(=O)NCC(=O)N[C@@H](CCCNC(=N)N)C(=O)N[C@@H](CC(C)C)C(=O)N[C@@H](CO)C(=O)N[C@@H](C)C(=O)N[C@@H](CCC(=O)O)C(=O)N[C@@H](CC(C)C)C(=O)N[C@@H](Cc1c[nH]cn1)C(=O)N[C@@H](CCC(=O)O)C(=O)N[C@@H](CC(C)C)C(=O)N[C@@H](C)C(=O)N[C@H](C(=O)N[C@@H](CC(C)C)C(=O)N1CCC[C@H]1C(=O)N[C@@H](CCCNC(=N)N)C(=O)N[C@H](C(=O)N[C@@H](CCC(=O)O)C(=O)N[C@H](C(=O)NCC(=O)N[C@@H](CO)C(=O)NCC(=O)N[C@@H](CO)C(=O)N[C@@H](Cc1c[nH]cn1)C(N)=O)[C@@H](C)O)[C@@H](C)O)[C@@H](C)O) [[N-terminal(C20 diacid-gGlu), des1, 30S, 31G, 33H]mimylin] |
| 55 | 31 | {C20 diacid-γGlu}-ASELSTAALGRLSAELHELATLPRTETGSGSL-NH2 (SMILES CC(C)C[C@H](NC(=O)[C@H](CO)NC(=O)CNC(=O)[C@H](CO)NC(=O)CNC(=O)[C@@H](NC(=O)[C@H](CCC(=O)O)NC(=O)[C@@H](NC(=O)[C@H](CCCNC(=N)N)NC(=O)[C@@H]1CCCN1C(=O)[C@H](CC(C)C)NC(=O)[C@@H](NC(=O)[C@H](C)NC(=O)[C@H](CC(C)C)NC(=O)[C@H](CCC(=O)O)NC(=O)[C@H](Cc1c[nH]cn1)NC(=O)[C@H](CC(C)C)NC(=O)[C@H](CCC(=O)O)NC(=O)[C@H](C)NC(=O)[C@H](CO)NC(=O)[C@H](CC(C)C)NC(=O)[C@H](CCCNC(=N)N)NC(=O)CNC(=O)[C@H](CC(C)C)NC(=O)[C@H](C)NC(=O)[C@H](C)NC(=O)[C@@H](NC(=O)[C@H](CO)NC(=O)[C@H](CC(C)C)NC(=O)[C@H](CCC(=O)O)NC(=O)[C@H](CO)NC(=O)[C@H](C)NC(=O)CC[C@H](NC(=O)CCCCCCCCCCCCCCCCCCC(=O)O)C(=O)O)[C@@H](C)O)[C@@H](C)O)[C@@H](C)O)[C@@H](C)O)C(N)=O) [[N-terminal(C20 diacid-gGlu), des1, 30S, 31G, 33L]mimylin] |
| 46 | 37 | {C20 diacid-γGlu}-ASELSTAALGRLSAELHELATLPRTETGSGSY-NH2 (SMILES CC(C)C[C@H](NC(=O)[C@H](C)NC(=O)[C@H](C)NC(=O)[C@@H](NC(=O)[C@H](CO)NC(=O)[C@H](CC(C)C)NC(=O)[C@H](CCC(=O)O)NC(=O)[C@H](CO)NC(=O)[C@H](C)NC(=O)CC[C@H](NC(=O)CCCCCCCCCCCCCCCCCCC(=O)O)C(=O)O)[C@@H](C)O)C(=O)NCC(=O)N[C@@H](CCCNC(=N)N)C(=O)N[C@@H](CC(C)C)C(=O)N[C@@H](CO)C(=O)N[C@@H](C)C(=O)N[C@@H](CCC(=O)O)C(=O)N[C@@H](CC(C)C)C(=O)N[C@@H](Cc1c[nH]cn1)C(=O)N[C@@H](CCC(=O)O)C(=O)N[C@@H](CC(C)C)C(=O)N[C@@H](C)C(=O)N[C@H](C(=O)N[C@@H](CC(C)C)C(=O)N1CCC[C@H]1C(=O)N[C@@H](CCCNC(=N)N)C(=O)N[C@H](C(=O)N[C@@H](CCC(=O)O)C(=O)N[C@H](C(=O)NCC(=O)N[C@@H](CO)C(=O)NCC(=O)N[C@@H](CO)C(=O)N[C@@H](Cc1ccc(O)cc1)C(N)=O)[C@@H](C)O)[C@@H](C)O)[C@@H](C)O) [[N-terminal(C20 diacid-gGlu), des1, 30S, 31G, 33Y]mimylin] |
| 63 | 38 | {C20 diacid-γGlu}-ASELSTAALGRLSAELHELATLPRTETGSGSS-NH2 (SMILES CC(C)C[C@H](NC(=O)[C@H](C)NC(=O)[C@H](C)NC(=O)[C@@H](NC(=O)[C@H](CO)NC(=O)[C@H](CC(C)C)NC(=O)[C@H](CCC(=O)O)NC(=O)[C@H](CO)NC(=O)[C@H](C)NC(=O)CC[C@H](NC(=O)CCCCCCCCCCCCCCCCCCC(=O)O)C(=O)O)[C@@H](C)O)C(=O)NCC(=O)N[C@@H](CCCNC(=N)N)C(=O)N[C@@H](CC(C)C)C(=O)N[C@@H](CO)C(=O)N[C@@H](C)C(=O)N[C@@H](CCC(=O)O)C(=O)N[C@@H](CC(C)C)C(=O)N[C@@H](Cc1c[nH]cn1)C(=O)N[C@@H](CCC(=O)O)C(=O)N[C@@H](CC(C)C)C(=O)N[C@@H](C)C(=O)N[C@H](C(=O)N[C@@H](CC(C)C)C(=O)N1CCC[C@H]1C(=O)N[C@@H](CCCNC(=N)N)C(=O)N[C@H](C(=O)N[C@@H](CCC(=O)O)C(=O)N[C@H](C(=O)NCC(=O)N[C@@H](CO)C(=O)NCC(=O)N[C@@H](CO)C(=O)N[C@@H](CO)C(N)=O)[C@@H](C)O)[C@@H](C)O)[C@@H](C)O) [[N-terminal(C20 diacid-gGlu), des1, 30S, 31G, 33S]mimylin] |
